Test results: patent US20240279357A1 (THERINI BIO, published 2024)

What was measured:
[1] = molecular target: T1, P2 peptide comprising SEQ ID NO: 31 (human fibrin γ377-395) (human); assay: ELISA on coated P2 peptide
T1 construct: Bought (CPC Scientific 920712); also called human P2 peptide
T1 peptide: YSMKKTTMKIIPFNRLTIG
Protocol: (§1) The humanized antibodies affinity for fibrinogen, fibrin and P2 peptide were assessed by Enzyme-linked immunosorbent assays (ELISA)s (FIGS. 7-16). ELISAs for fibrinogen binding were performed using plasminogen-depleted human Fibrinogen (EMD/Calbiochem). […] IgG1-depleted Fibrinogen (FGN) in 20 mM HEPES/Saline buffer was added to each well of half of a 96-well Nunc Maxisorp™ ELISA plate. The ELISAs for fibrin binding were prepared by adding 50 mL of 20 mM HEPES/Saline buffer containing 14 mM CaCl₂, and 2 units thrombin to each well of the second half of the Nunc Maxisorp™ ELISA plate. 50 mL of 20 mg fibrinogen in 20 mM HEPES/Saline buffer were then added to a total volume of 100 mL. Plates were placed in a 37° C. incubator for 1 hour to allow fibrinogen to clot into fibrin and subsequently placed overnight into a plate dryer at 37° C. overnight. The ELISAs for P2 peptide were prepared by addition of […] of 30 mM P2 peptide in 20 mM HEPES/Saline buffer to each well of a 96-well Nunc Maxisorp™ ELISA plate. Plates were transferred to the plate dryer and dried overnight at 37° C. All ELISAs were preformed using Nunc MaxiSorp 96-well ELISA plates. Blocking was performed using 100 mL 5% BSA in DPBS are incubated at RT for 1 hour. Plates were washed 5× in DPBS containing 0.05% Tween-20 (EL406 was used for the addition of wash buffer only). 50 mL of primary antibodies was diluted in 0.5% BSA in DPBS, and the primary antibodies were added to the plates and incubated for 2 hours at 37° C. Plates were washed 5× in DPBS/Tween. 100 mL secondary antibodies were diluted in 0.5% BSA in DPBS. The secondary antibodies were then added to the plates and incubated for 1 hour at RT. Afterwards, plates were washed 5× in DPBS/Tween. 100 mL of TMB/E substrate solution was added, and the reaction was stopped after 5 minutes with 1N HCl.

[2] = molecular target: T2, human Fibrin (human fibrinogen clotted on the plate with thrombin and CaCl2) (human, UniProt P02671 36-629; P02675 45-491; P02679 27-437); assay: ELISA on human fibrin formed on the plate
T2 construct: Made in the ELISA wells from the human fibrinogen by thrombin and CaCl2, 1 hour at 37 C, then dried
T2 sequence (looked up) 1: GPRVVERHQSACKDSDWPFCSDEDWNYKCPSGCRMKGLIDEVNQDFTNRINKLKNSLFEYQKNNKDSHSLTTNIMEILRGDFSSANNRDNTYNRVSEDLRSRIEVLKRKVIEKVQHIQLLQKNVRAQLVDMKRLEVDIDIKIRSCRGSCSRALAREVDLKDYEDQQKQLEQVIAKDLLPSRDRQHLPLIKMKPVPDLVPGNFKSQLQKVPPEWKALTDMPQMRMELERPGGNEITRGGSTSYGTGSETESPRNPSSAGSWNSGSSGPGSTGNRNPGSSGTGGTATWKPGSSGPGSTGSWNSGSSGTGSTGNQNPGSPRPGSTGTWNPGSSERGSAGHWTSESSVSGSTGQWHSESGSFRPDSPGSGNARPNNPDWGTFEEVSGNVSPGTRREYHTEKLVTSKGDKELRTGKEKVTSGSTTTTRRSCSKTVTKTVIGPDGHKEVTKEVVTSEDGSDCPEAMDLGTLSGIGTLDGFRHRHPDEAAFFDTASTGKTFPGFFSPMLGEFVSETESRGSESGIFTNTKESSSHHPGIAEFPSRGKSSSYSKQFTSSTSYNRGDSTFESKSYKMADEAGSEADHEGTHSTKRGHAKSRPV
T2 sequence (looked up) 2: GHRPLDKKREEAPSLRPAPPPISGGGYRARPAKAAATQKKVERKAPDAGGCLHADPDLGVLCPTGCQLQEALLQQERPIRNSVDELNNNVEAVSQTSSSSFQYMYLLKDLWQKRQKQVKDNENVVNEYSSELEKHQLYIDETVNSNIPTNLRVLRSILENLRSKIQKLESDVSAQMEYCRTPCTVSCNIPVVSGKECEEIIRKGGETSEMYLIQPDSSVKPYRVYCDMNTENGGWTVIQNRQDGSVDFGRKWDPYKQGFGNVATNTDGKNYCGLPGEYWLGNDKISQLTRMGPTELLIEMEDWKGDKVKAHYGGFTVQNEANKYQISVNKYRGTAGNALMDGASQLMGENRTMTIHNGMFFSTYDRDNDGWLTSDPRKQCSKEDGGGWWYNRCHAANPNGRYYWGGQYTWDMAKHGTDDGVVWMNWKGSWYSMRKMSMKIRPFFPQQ
T2 sequence (looked up) 3: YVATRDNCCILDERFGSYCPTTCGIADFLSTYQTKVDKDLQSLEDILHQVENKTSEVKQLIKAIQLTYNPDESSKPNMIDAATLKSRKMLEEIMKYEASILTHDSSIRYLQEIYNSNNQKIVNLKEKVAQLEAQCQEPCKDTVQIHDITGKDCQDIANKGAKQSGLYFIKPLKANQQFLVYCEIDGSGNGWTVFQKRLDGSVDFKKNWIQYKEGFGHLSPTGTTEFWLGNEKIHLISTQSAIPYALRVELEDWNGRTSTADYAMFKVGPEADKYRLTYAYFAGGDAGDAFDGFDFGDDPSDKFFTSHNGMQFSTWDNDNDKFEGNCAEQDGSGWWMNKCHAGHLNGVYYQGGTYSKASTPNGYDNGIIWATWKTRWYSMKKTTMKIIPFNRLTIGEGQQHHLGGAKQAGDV
Protocol: as §1

[3] = molecular target: T3, plasminogen-depleted human Fibrinogen (EMD/Calbiochem) (human, UniProt P02671 20-629; P02675 31-491; P02679 27-437, limits assumed); assay: ELISA on coated human fibrinogen; curve did not reach saturation
T3 construct: Bought protein, IgG-depleted, coated on ELISA plates; also called FGN
T3 sequence (looked up) 1: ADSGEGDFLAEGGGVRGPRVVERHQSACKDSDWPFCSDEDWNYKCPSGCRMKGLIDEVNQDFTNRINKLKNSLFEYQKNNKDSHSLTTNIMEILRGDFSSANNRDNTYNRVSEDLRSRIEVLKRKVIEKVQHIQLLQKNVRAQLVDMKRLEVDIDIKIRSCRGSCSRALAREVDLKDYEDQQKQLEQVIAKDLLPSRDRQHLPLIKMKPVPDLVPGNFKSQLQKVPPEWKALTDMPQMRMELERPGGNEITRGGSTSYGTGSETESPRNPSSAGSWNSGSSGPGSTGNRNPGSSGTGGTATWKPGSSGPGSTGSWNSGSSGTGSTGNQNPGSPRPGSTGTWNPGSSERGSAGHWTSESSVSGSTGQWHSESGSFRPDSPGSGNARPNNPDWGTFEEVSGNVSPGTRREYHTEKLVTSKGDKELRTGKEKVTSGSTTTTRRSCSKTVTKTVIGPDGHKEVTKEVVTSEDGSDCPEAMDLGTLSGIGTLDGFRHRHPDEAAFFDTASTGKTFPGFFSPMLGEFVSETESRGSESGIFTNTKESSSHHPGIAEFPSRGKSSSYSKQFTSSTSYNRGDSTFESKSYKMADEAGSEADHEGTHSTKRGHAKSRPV
T3 sequence (looked up) 2: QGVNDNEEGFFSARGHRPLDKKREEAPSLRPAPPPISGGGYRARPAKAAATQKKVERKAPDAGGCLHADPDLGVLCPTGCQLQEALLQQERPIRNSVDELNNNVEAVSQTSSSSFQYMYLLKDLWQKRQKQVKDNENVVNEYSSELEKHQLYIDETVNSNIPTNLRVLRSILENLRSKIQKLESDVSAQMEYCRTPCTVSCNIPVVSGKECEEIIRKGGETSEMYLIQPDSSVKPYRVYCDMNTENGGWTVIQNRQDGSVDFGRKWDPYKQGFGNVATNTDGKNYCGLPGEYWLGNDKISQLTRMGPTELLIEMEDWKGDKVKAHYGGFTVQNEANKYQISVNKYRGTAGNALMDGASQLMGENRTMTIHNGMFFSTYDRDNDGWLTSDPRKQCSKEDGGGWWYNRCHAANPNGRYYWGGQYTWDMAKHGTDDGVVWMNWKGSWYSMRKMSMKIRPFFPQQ
T3 sequence (looked up) 3: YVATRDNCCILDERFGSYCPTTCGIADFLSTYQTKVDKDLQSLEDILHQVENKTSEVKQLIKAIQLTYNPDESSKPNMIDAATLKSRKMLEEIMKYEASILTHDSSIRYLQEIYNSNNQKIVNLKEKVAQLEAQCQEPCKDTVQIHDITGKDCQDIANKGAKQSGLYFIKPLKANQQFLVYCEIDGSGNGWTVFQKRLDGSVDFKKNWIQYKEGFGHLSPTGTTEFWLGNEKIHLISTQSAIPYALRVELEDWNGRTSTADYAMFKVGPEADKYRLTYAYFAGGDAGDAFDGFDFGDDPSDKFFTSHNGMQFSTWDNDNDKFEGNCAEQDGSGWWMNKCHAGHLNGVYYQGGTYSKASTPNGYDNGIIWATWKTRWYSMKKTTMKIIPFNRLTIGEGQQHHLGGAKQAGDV
Protocol: as §1

[4] = molecular target: T1, P2 peptide comprising SEQ ID NO: 31 …; assay: ELISA on plate-coated human P2 peptide, antibody titrated, A450
Protocol: as §1, with “50 mL of primary antibodies was diluted in 0.5% BSA in DPBS, and the primary antibodies were added to the plates and incubated for 2 hours at 37° C. Plates were washed 5× in DPBS/Tween. 100 mL secondary antibodies were diluted in 0.5% BSA in DPBS. The secondary antibodies were then added to the plates and incubated for 1 hour at RT. Afterwards, plates were washed 5× in DPBS/Tween. 100 mL of TMB/E substrate solution was added, and the reaction was stopped after 5 minutes with 1N HCl.” left out

[5] = molecular target: T2, human Fibrin (human fibrinogen clotted …); assay: ELISA on plate-coated human fibrin (fibrinogen clotted in the well with thrombin/CaCl2), antibody titrated, A450
Protocol: as §1, with “50 mL of primary antibodies was diluted in 0.5% BSA in DPBS, and the primary antibodies were added to the plates and incubated for 2 hours at 37° C. Plates were washed 5× in DPBS/Tween. 100 mL secondary antibodies were diluted in 0.5% BSA in DPBS. The secondary antibodies were then added to the plates and incubated for 1 hour at RT. Afterwards, plates were washed 5× in DPBS/Tween. 100 mL of TMB/E substrate solution was added, and the reaction was stopped after 5 minutes with 1N HCl.” left out

B1: mouse monoclonal anti-fibrin antibody 5B8 (antibody, V domains shown)
VH: QVQLQQPGAELVRPGTSVKLSCKASGYTFTSYWIHWVKQRPGQGLEWIGLIDPSDSYTNYNQKFRGKATLTVDTSSSTAYMQLSSLTSEDSAVYYCASSDPTGCWGQGTTLTVSP
VL: DIVMTQAAFSNPITLGTSASMSCRSSKSLLHSSGITYLSWYLQKPGQSPQLLIYQMSNLASGVPDRFSSSGSGTDFTLRISRVEAEDVGVYYCAQNLELPLTFGAGTKLELK
notes: also called murine 5B8; Murine 5B8 (from client)
EC50 [1]: ~29 nM | EC50 [2]: ~82.6 nM | EC50 [3]: ~1600 nM | EC50 (read off the curve) [4]: ~30 nM | EC50 (read off the curve) [5]: ~80 nM
